In the RNAGym collection of RNA variant scans (doi:10.7554/elife.80360):

B1: Hairpin Ribozyme (parent)
chain: GUCCUCUUUCACGUGCGCGUGAAAGAGAGAAGUGAACCAGAGAAACACACGUUGUGGUAUAUUACCUGGUA

Variants of: B1
Experiment: self-cleavage, relative activity (ratio to wild type); higher = more cleavage; co-transcriptional

Variant | self-cleavage
GACCUCUUUCACGUGCGCGUGGAAGAGAGAAGUGAACCAGAGAAACACACGUUGUGGUAUAUUACCUGGUA [U2A A22G] | 0.175
GUCCUCUUUCACGUGCGCGUGAAAGAGAGAAGUGAACCAGAGAAACACACUUUGUGGUAUAUUACCUGUUA [G51U G69U] | 0.287
GUCCUCUUUCACGUGCGCGUGAAAGAGAGAUGUGAACCACAGAAACACACGUUGUGGUAUAUUACCUGGUA [A31U G40C] | 0.154
GUCCUCUUUCACGUGGGCGUGAAAGAGAAAAGUGAACCAGAGAAACACACGUUGUGGUAUAUUACCUGGUA [C16G G29A] | 0.202
GUCCUCUUUCACGUGCGCGUGAAAGAGAGCAGUGAACCAGAGAGACACACGUUGUGGUAUAUUACCUGGUA [A30C A44G] | 0.145
GUCCUUUUUCACGUGCGCGUGAAAGAGAGAAGUGAACCAGAGAAACACACGUUGUGGUAUAUUACCGGGUA [C6U U67G] | 0.271
GGCCUCUUUCACGUGCGCGUGAAAGAGAGAAGUGAACCAGAGAAACACACGUUGUGGUAUAUUACCUGGAA [U2G U70A] | 0.191
GUCCUCUUUCACGUGCGCGUGACAGAGAGAAGGGAACCAGAGAAACACACGUUGUGGUAUAUUACCUGGUA [A23C U33G] | 0.171
CUCCUCUUUCACGUGCGCGUGAAAGAGAGAAGUGAACCAGAGAAACACACGUUGUGGUAUAUUACCUGGUC [G1C A71C] | 0.328
GUCCUCUUUCACGUGCGUGUGAAAGAGAGAAGUGAACCAGAGAAACACACGUUGUGGGAUAUUACCUGGUA [C18U U58G] | 0.991
GUCCUCUUUCACGUGCGCGUGAAAGAGAGAAUUGAACCAGAGAAUCACACGUUGUGGUAUAUUACCUGGUA [G32U A45U] | 0.3
GUCCUCUUUCACGUGCGCAUGAAAGAGAGGAGUGAACCAGAGAAACACACGUUGUGGUAUAUUACCUGGUA [G19A A30G] | 0.149
GUCCUCUUUCACGCGCGCGUGAAAGAGAGAAGUGAACCAGGGAAACACACGUUGUGGUAUAUUACCUGGUA [U14C A41G] | 0.678
GUCCUGUUUCACGUGCGCGUGAAAGAGGGAAGUGAACCAGAGAAACACACGUUGUGGUAUAUUACCUGGUA [C6G A28G] | 0.605
GUCCUCUUUCACGUGCGCGUGAAAGAGAGGAGUGAACCCGAGAAACACACGUUGUGGUAUAUUACCUGGUA [A30G A39C] | 0.106
GUCCUCUUUCACGUGCGCGUGAAAGAGAGAAGUGAACCAGAGAAACACACGUUGUGAUAUAUUACCUAGUA [G57A G68A] | 0.119
GUCCUCUUUCACUUGCGCGUGAAAGAGAGAAGUGAACCAGAGAAACACACGUUGUGGUAUAUUACCUCGUA [G13U G68C] | 0.19
GUCCUCUUACACGUGCGCGUGAAAGAGAGAAGUGAACCAGAGAAACACACGUUGUGGUAUAUUACCCGGUA [U9A U67C] | 0.174
GUCCUCUUUCACGUGCGCGUGAAAGAGAGAAGUGGACCAGAGAAACACAUGUUGUGGUAUAUUACCUGGUA [A35G C50U] | 0.355
GUCCUCUUUCACGUGCGCGUGAGAGAGAGAAGUGAACCAGAGAAACACACGUUGUGGUACAUUACCUGGUA [A23G U60C] | 0.924
GUCCGCUUUCACGCGCGCGUGAAAGAGAGAAGUGAACCAGAGAAACACACGUUGUGGUAUAUUACCUGGUA [U5G U14C] | 0.383
GUCCUCUUUCACGUGCGCGUGAAAGAGAGAAGUGAACCAGAGAAACAAACGUGGUGGUAUAUUACCUGGUA [C48A U53G] | 0.191
GUCCUCUUUGACGUGCGCGUGAAAGAGAGAACUGAACCAGAGAAACACACGUUGUGGUAUAUUACCUGGUA [C10G G32C] | 0.207
GUCCUCUUUCGCGUGCGCGUGAAAGAGAGAAGUGAACCAGAGAAACACGCGUUGUGGUAUAUUACCUGGUA [A11G A49G] | 0.577
GUCCUCUUUCCCGUGCGCGUGAAAGACAGAAGUGAACCAGAGAAACACACGUUGUGGUAUAUUACCUGGUA [A11C G27C] | 0.165
GUCCUCUUUCACGUGCACGUGAAAGAGAGAAGUGAACCAGAGAAACACACGUUGUGGUAUAUUACCUGGUG [G17A A71G] | 1.04

Variant | self-cleavage
GUCCUCUUUCACGUGCGCGUCAAAGAGAGAAGUGAACCAGAGAAACACACGUUGUGGUAUAUUACGUGGUA [G21C C66G] | 0.159
GUCCUCUUUCAGGUGCGCGUGAAAGAGAGAAGUGAACCAGAGAAACACACGUUGUGGUAAAUUACCUGGUA [C12G U60A] | 0.748
GUCCUCUUUCACGUGCGCGUGAAAGAGAGAAGUGAACCAGCGAAACACACUUUGUGGUAUAUUACCUGGUA [A41C G51U] | 1.48
GUCCUCUUUCACGUGCGUGUGAAAGAGAGAAGUGAACCAGAGAAACACACGUUGUGGUAUAUUCCCUGGUA [C18U A64C] | 0.216
GUCCUCUUUCACCUGCGCGUGAAAGAGAGAAGUGAACCAGAGAAACACACCUUGUGGUAUAUUACCUGGUA [G13C G51C] | 0.681
GUCCUCUUUCACGUGCGCGUGAAAGAGAGAAGUGAACCAGAGAAACACACGUUGUGGUGUACUACCUGGUA [A59G U62C] | 0.201
GUCCUCUUUCACGUGCGCGUGAAAGAGAGAAGUGAACCAGACAAACACACGUUGUGGAAUAUUACCUGGUA [G42C U58A] | 0.218
GUCCUCUUUCACGUGCGAGUGAAAGAGAGAAGUGAACCAGAGAAACACACGUUGUGGUAUAUUACCUGGUC [C18A A71C] | 1.34
GUCCUGUUUCACGUGCGCGUGAAAGAGAGAAGUGAACCAGAGAAACACACGUCGUGGUAUAUUACCUGGUA [C6G U53C] | 0.329
GUCCUCUUUCACGUGCGCGUGAAAGAGAGAAGUGAACCAGAGAAACAAACGUUGUGGUAUAUUACCUGGUU [C48A A71U] | 0.129
GUCCUCUUUCACGUGCGCGUGAAAGAGAGAAGUGAACCAGAGAAACAAACGUUGUGGUAUAUUACCUGGUC [C48A A71C] | 0.343
GUCCUCUUUCACGUGCGCGUGAAAGAGUGAAGUGAACCAGAGAAACACACGUUGUGGUAUAUUACCAGGUA [A28U U67A] | 0.0994
GUCCUCUUUCACGGGCGCGUGAAAGAGAGAAGUGAACCAGAGAAACACACGAUGUGGUAUAUUACCUGGUA [U14G U52A] | 1.02
GUCCUCUUUCACGUGCGCGUGAAAGAGAGAACUGAACCAGAGAAACUCACGUUGUGGUAUAUUACCUGGUA [G32C A47U] | 0.0919
GUCCUCUUUCACGUGCGCGUGAAAGAGAGAAGUGAACCAGAGAAACACACGUUGUGGUAUCUUACCAGGUA [A61C U67A] | 0.252
GUCCUCUUUCACGUGCGCUUGAAAGAGAGAAGUGAACCAGAGAAACACACGUUGUGGUAUAUUACCUCGUA [G19U G68C] | 0.196
GUCCUCUUUCACGUGCGCGUGAAAGAGAGAAGUGAACCAGAGAAACACACGUUGUGGAAUAUUACCUGGAA [U58A U70A] | 0.588
GUCCUCGUUCACGUGCGCGUGAAAGAGAGAAGUGUACCAGAGAAACACACGUUGUGGUAUAUUACCUGGUA [U7G A35U] | 0.921
GUCCUCUUUCACGUGCGCGUGAAAGAGAGAAGUGAAUCAGAGAAACACACGUUGAGGUAUAUUACCUGGUA [C37U U55A] | 0.143
GUCCUCUUUCACGUGCGCGUUCAAGAGAGAAGUGAACCAGAGAAACACACGUUGUGGUAUAUUACCUGGUA [G21U A22C] | 0.763
GUCCUCUUUCACGUGCGCGCGAAAGAGAGAAGUGAACCAGAGAAACACACGUUGUGGUAUAUUACUUGGUA [U20C C66U] | 0.486
GUCCUCUUUCACGUGCGCGUGAAAGAGAGAAGUGAACCAGAAAAACACAGGUUGUGGUAUAUUACCUGGUA [G42A C50G] | 0.128
GACCUCUUUCACGUGCGCGUGAAAGAGAGAAAUGAACCAGAGAAACACACGUUGUGGUAUAUUACCUGGUA [U2A G32A] | 0.0985
GUCCGCUUUCACGUGCGCGUGAAAGAGAGAAGUGAACCAGAGAAACACACGUUGUGGUAUAUUACCUGCUA [U5G G69C] | 0.104
GUCCUCUUUCACGUGCGCGUGAAAGAGAGAAGUGAACCAGAGAAUCACACGUUGCGGUAUAUUACCUGGUA [A45U U55C] | 0.0822
GUCCUCUUUCACGUGAGCGUGAAAGAGAGAAGUGAACCAGAGAAACAAACGUUGUGGUAUAUUACCUGGUA [C16A C48A] | 0.123

Variant | self-cleavage
GUCCUCUUUCACGUGCGCGUGAAAGAGAGAAGUGAACCAGAGAAACACACGUUGUGGUAUAUUUCCAGGUA [A64U U67A] | 0.206
GUCCUCUUUCACGUGCGCGGGAAAGAGAGAAGUGAACCAGAGAAACACACGUUGUGGUAUAUUACCUCGUA [U20G G68C] | 0.162
GUCCUUUUUCACGUGCGCGUGAAAGAGAGAAGUGAACCAGAGCAACACACGUUGUGGUAUAUUACCUGGUA [C6U A43C] | 0.0901
GUCCUCUUUCACGUGCGCGUGAAAGAGCGUAGUGAACCAGAGAAACACACGUUGUGGUAUAUUACCUGGUA [A28C A30U] | 0.126
GUCCUCUUUCACGUGCGCGUGAAAGAGAGAAGUGAACGAGAGAAAUACACGUUGUGGUAUAUUACCUGGUA [C38G C46U] | 0.116
GUCCUCUUUCACGUGCGCUUGAAAGAGAGAAGUGAACCAGAGAAACACACGUUGUGGUAUAUUCCCUGGUA [G19U A64C] | 0.162
GUCCUCUUUCACGUGCGCGUGAAAGAGAGAUGUGAACCAGAGAAACACACGUUGUGGUAUAUUAUCUGGUA [A31U C65U] | 0.121
GUCCUCUUUCACGUGCGCGUGACAGAGAGAAGUGAACCAGAGAAACGCACGUUGUGGUAUAUUACCUGGUA [A23C A47G] | 0.132
GUCCUCUUUCACGUGCGCGUGAAAGAGAGAAGUGAACCAGAGAAACACACGCUGAGGUAUAUUACCUGGUA [U52C U55A] | 0.318
GUCCUCUUUCACGUGCGCGUGAAAGAGACAAGUGAACCAGAGAUACACACGUUGUGGUAUAUUACCUGGUA [G29C A44U] | 0.18
GUCCUCUUUCACGUGCGCGUGAAAGAGGGAAGUGAACCAGAGAAACACACGUUCUGGUAUAUUACCUGGUA [A28G G54C] | 0.432
AUCCUCUGUCACGUGCGCGUGAAAGAGAGAAGUGAACCAGAGAAACACACGUUGUGGUAUAUUACCUGGUA [G1A U8G] | 0.158
GUCCUCUUUCACGUGCGCGUGAAAGAGAUAAGUGAACCAGAGACACACACGUUGUGGUAUAUUACCUGGUA [G29U A44C] | 0.251
GUCCUCUUUCACGUGCGCGUGAAAGAGAGAAGUGAACCAGAGAAACACACGUGGUGGUAUAUUUCCUGGUA [U53G A64U] | 0.144
GUCCUCUUUCACGUGCGCGUGAAUGAGAGAAGUGAACCAGAGAUACACACGUUGUGGUAUAUUACCUGGUA [A24U A44U] | 0.123
GUCCUCUUUCACGUGCGCAUGAAAGAGAGAAGUGAACCAGAGAAACACAAGUUGUGGUAUAUUACCUGGUA [G19A C50A] | 0.278
GUCCUCUUUCACGUGCGCGUGAAAGGGGGAAGUGAACCAGAGAAACACACGUUGUGGUAUAUUACCUGGUA [A26G A28G] | 1.12
GUCCUCUUUCACGUGCGCGUGAAAGAGAGAAGUGAACCAGCGCAACACACGUUGUGGUAUAUUACCUGGUA [A41C A43C] | 0.0734
GUCCUCUUUCACGUGCGCGUGAAAAAGAGAAGUGAACCAGAGAACCACACGUUGUGGUAUAUUACCUGGUA [G25A A45C] | 0.109
GUCCUCUUUCACGUGCGCGUGAAAGAGAGAAGUGAACCAGAGAAACAAACGUUGUGGUAGAUUACCUGGUA [C48A U60G] | 0.149
GUCCUCUUUCAAGUGCGCGUGAAAGAGAGAAGUGAACCAGAGAAACACACGUUGUGGUAUAUUGCCUGGUA [C12A A64G] | 0.411
GUCCUCUUUCACAUGCGCGUGAAAGAGUGAAGUGAACCAGAGAAACACACGUUGUGGUAUAUUACCUGGUA [G13A A28U] | 0.495
GUCCUCUGUCACGUGCGCGUGAAAGAGAGAAGUGAACCAGAAAAACACACGUUGUGGUAUAUUACCUGGUA [U8G G42A] | 0.156
GUCCUCUUUCACGUGCGCGUGAAAGAGAAAAGUGAACCAGAGAAUCACACGUUGUGGUAUAUUACCUGGUA [G29A A45U] | 0.0463
